Measured values from patent US20200024358A1 (published 2020).
Numbering of substitutions follows the chain as printed.

T1: recombinant Human BCMA Fc Chimera (produced in-house via transient expression in HEK293-6E cells) (human, UniProt Q02223 1-54)
T1 construct: not shown: Fc part of the chimera
T1 sequence (looked up): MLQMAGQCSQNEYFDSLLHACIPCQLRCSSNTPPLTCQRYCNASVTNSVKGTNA

B1: CDR1-047 (other)
heavy: QIQLVQSGPELKKPGETVKISCKASGYTFTDYSINWVKRAPGKGLKWMGWINTETREPAYAYDFRGRFAFSLETSASTAYLQINNLKYEDTATYFCALDYSYAMDYWGQGTSVTVSSASTKGPSVFPLAPSSKSTSGGTAALGCLVKDYFPEPVTVSWNSGALTSGVHTFPAVLQSSGLYSLSSVVTVPSSSLGTQTYICNVNHKPSNTKVDKRVEPKSCGGGGSAVVTQEPSLTVSPGGTVTLTCGSSTGAVTTSNYANWVQQKPGKSPRGLIGGTNKRAPGVPARFSGSLLGGKAALTISGAQPEDEADYYCALWYSNHWVFGGGTKLTVLGGGGGSGGGGSGGGGSGGGGSEVQLVESGGGSVQPGGSLRLSCAASGFTFSTYAMNWVRQAPGKGLEWVGRIRSKANNYATYYADSVKGRFTISRDDSKNTLYLQMNSLRAEDTATYYCVRHGNFGDSYVSWFAYWGQGTTVTVSS
light: DIVLTQSPASLAMSLGKRATISCRASESVSVIGAHLIHWYQQKPGQPPKLLIYLASNLETGVPARFSGSGSGTDFTLTIDPVEEDDVAIYSCLQSRIFPRTFGGGTKLEIKRTVAAPSVFIFPPSDEQLKSGTASVVCLLNNFYPREAKVQWKVDNALQSGNSQESVTEQDSKDSTYSLSSTLTLSKADYEKHKVYACEVTHQGLSSPVTKSFNRGECGGGGSEIVMTQSPSTLSASVGDRVIITCQASEDIYSLLAWYQQKPGKAPKLLIYDASDLASGVPSRFSGSGSGAEFTLTISSLQPDDSATYYCQGNYGSSSSSSYGAVFGQGTKLTVLGGGGGSGGGGSGGGGSGGGGSEVQLVESGGGSVQPGGSLRLSCTVSGIDLSSYTMGWVRQAPGKGLEWVGIISSGGRTYYASWAKGRFTISRDTSKNTVYLQMNSLRAEDTATYYCARGRYTGYPYYFALWGQGTTVTVSS
notes: Trispecific Fab-scFv: anti-BCMA Fab, anti-CD3 scFv on the Fd, anti-PD-L1 scFv on the light chain
B2: CDR1-048 (other)
heavy: EVQLVESGGGSVQPGGSLRLSCAASGFTFSTYAMNWVRQAPGKGLEWVGRIRSKANNYATYYADSVKGRFTISRDDSKNTLYLQMNSLRAEDTATYYCVRHGNFGDSYVSWFAYWGQGTTVTVSSASTKGPSVFPLAPSSKSTSGGTAALGCLVKDYFPEPVTVSWNSGALTSGVHTFPAVLQSSGLYSLSSVVTVPSSSLGTQTYICNVNHKPSNTKVDKRVEPKSCGGGGSDIVLTQSPASLAMSLGKRATISCRASESVSVIGAHLIHWYQQKPGQPPKLLIYLASNLETGVPARFSGSGSGTDFTLTIDPVEEDDVAIYSCLQSRIFPRTFGGGTKLEIKGGGGSGGGGSGGGGSGGGGSQIQLVQSGPELKKPGETVKISCKASGYTFTDYSINWVKRAPGKGLKWMGWINTETREPAYAYDFRGRFAFSLETSASTAYLQINNLKYEDTATYFCALDYSYAMDYWGQGTSVTVSS
light: AVVTQEPSLTVSPGGTVTLTCGSSTGAVTTSNYANWVQQKPGKSPRGLIGGTNKRAPGVPARFSGSLLGGKAALTISGAQPEDEADYYCALWYSNHWVFGGGTKLTVLGTVAAPSVFIFPPSDEQLKSGTASVVCLLNNFYPREAKVQWKVDNALQSGNSQESVTEQDSKDSTYSLSSTLTLSKADYEKHKVYACEVTHQGLSSPVTKSFNRGECGGGGSEIVMTQSPSTLSASVGDRVIITCQASEDIYSLLAWYQQKPGKAPKLLIYDASDLASGVPSRFSGSGSGAEFTLTISSLQPDDSATYYCQGNYGSSSSSSYGAVFGQGTKLTVLGGGGGSGGGGSGGGGSGGGGSEVQLVESGGGSVQPGGSLRLSCTVSGIDLSSYTMGWVRQAPGKGLEWVGIISSGGRTYYASWAKGRFTISRDTSKNTVYLQMNSLRAEDTATYYCARGRYTGYPYYFALWGQGTTVTVSS
notes: Trispecific Fab-scFv: anti-CD3 Fab, anti-BCMA scFv on the Fd, anti-PD-L1 scFv on the light chain
B3: CDR1-010 (other)
heavy: QIQLVQSGPELKKPGETVKISCKASGYTFTDYSINWVKRAPGKGLKWMGWINTETREPAYAYDFRGRFAFSLETSASTAYLQINNLKYEDTATYFCALDYSYAMDYWGQGTSVTVSSASTKGPSVFPLAPSSKSTSGGTAALGCLVKDYFPEPVTVSWNSGALTSGVHTFPAVLQSSGLYSLSSVVTVPSSSLGTQTYICNVNHKPSNTKVDKRVEPKSCGGGGSEIVMTQSPSTLSASVGDRVIITCQASEAIYSLLAWYQQKPGKAPKLLIYDASDLASGVPSRFSGSGSGAEFTLTISSLQPDDSATYYCQGNYGSSSSSSYGAVFGQGTKLTVLGGGGGSGGGGSGGGGSGGGGSEVQLVESGGGSVQPGGSLRLSCTVSGIDLSSYTMGWVRQAPGKGLEWVGIISSGGRTYYASWAKGRFTISRDTSKNTVYLQMNSLRAEDTATYYCARGRYTGYPYYFALWGQGTTVTVSS
light: DIVLTQSPASLAMSLGKRATISCRASESVSVIGAHLIHWYQQKPGQPPKLLIYLASNLETGVPARFSGSGSGTDFTLTIDPVEEDDVAIYSCLQSRIFPRTFGGGTKLEIKRTVAAPSVFIFPPSDEQLKSGTASVVCLLNNFYPREAKVQWKVDNALQSGNSQESVTEQDSKDSTYSLSSTLTLSKADYEKHKVYACEVTHQGLSSPVTKSFNRGECGGGGSAVVTQEPSLTVSPGGTVTLTCGSSTGAVTTSNYANWVQQKPGKSPRGLIGGTNKRAPGVPARFSGSLLGGKAALTISGAQPEDEADYYCALWYSNHWVFGGGTKLTVLGGGGGSGGGGSGGGGSGGGGSEVQLVESGGGSVQPGGSLRLSCAASGFTFSTYAMNWVRQAPGKGLEWVGRIRSKANNYATYYADSVKGRFTISRDDSKNTLYLQMNSLRAEDTATYYCVRHGNFGDSYVSWFAYWGQGTTVTVSS
B4: CDR1-012 (other)
heavy: B3 heavy with A253D, D275A
light: B3 light
B5: CDR1-013 (other)
heavy: B3 heavy with A253D, N316A
light: B3 light
B6: CDR1-014 (other)
heavy: B3 heavy with A253D, T392A
light: B3 light
B7: CDR1-015 (other)
heavy: B3 heavy with A253D, G413A
light: B3 light
B8: CDR1-016 (other)
heavy: B3 heavy with A253D, R415A
light: B3 light
B9: CDR1-018 (other)
heavy: B3 heavy with A253D, Y459A
light: B3 light

What follows are binders tested against T2, recombinant human PD-L1 His-tag protein (expressed after transient transfection in HEK293-6E) (human, UniProt Q9NZQ7 19-238, limits assumed) (assay: dual-binding ELISA: BCMA Fc coated, then PD-L1 His, anti-His detection).
T2 construct: not shown: His-tag
T2 sequence (Q9NZQ7 19-238 limits assumed): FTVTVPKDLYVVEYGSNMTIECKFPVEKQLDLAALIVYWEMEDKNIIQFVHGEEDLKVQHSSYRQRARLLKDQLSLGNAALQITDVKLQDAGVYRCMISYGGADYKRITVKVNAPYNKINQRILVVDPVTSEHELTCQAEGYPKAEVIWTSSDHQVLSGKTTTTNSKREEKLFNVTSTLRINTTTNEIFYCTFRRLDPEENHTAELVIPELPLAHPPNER

| Binder | binding result |
| --- | --- |
| B1 | binds |
| B2 | binds |

What follows are binders tested against T3, extracellular domain of human PD-L1 (Example 8) (human, UniProt Q9NZQ7 19-238) (assay: ELISA on coated extracellular domain of human PD-L1, serial dilutions).
T3 construct: extracellular domain; also called PD-L1 antigen; immobilized PD-L1
T3 sequence (Q9NZQ7 19-238): as the sequence (Q9NZQ7 19-238 limits assumed) above
Procedure: Serial dilutions of the antibodies to final concentrations ranging from 0.5 ng/mL to 50 μg/ml were tested by ELISA for binding to the extracellular domain of human PD-L1 coated on a 96 well plate.

| Binder | binding result |
| --- | --- |
| B3 | binds |
| B4 | binds |
| B5 | binds |
| B6 | binds |
| B7 | binds |
| B8 | binds |
| B9 | binds |

These binders were tested against T4, recombinant human CD3 epsilon His-tag protein (Novoprotein, Cat. No. C578) (human, UniProt P07766 23-126) (assay: dual-binding ELISA: BCMA Fc coated, then CD3 epsilon His, anti-His detection).
T4 construct: Bought protein; not shown: His-tag
T4 sequence (P07766 23-126): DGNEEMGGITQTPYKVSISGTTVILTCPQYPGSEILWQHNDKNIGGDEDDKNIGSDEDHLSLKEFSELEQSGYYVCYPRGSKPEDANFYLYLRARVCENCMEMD

| Binder | binding result |
| --- | --- |
| B1 | binds |
| B2 | binds |

The binders below were run against T1, recombinant Human BCMA Fc Chimera … (assay: dual-binding ELISA: BCMA Fc coated, then CD3 epsilon His or PD-L1 His, anti-His detection).
Procedure: Trispecific antibody molecules were tested for their ability to bind the different targets using a Dual-Binding ELISA. […] Simultaneous binding to antigen pairs was detected via an anti-His antibody (Abcam, Cat. No. ab1187).

| Binder | binding result |
| --- | --- |
| B1 | binds |
| B2 | binds |
